The source of these data is US20210332152A1.

In one assay the target is human IgG (human). Briefly: SPR (BIAcore T200), peptide immobilised on sensor chip, human IgG injected. On the technique in general: Surface plasmon resonance follows binding to a sensor surface in real time, without labels.
Assay [1] deals with human serum-derived γ-globulin (Sigma-Aldrich) (human). Briefly: column chromatography; 0.5 mg synthetic peptide immobilised on NHS-activated column, 1 mg/mL γ-globulin fed, 10% breakthrough.

For orientation: Kd means a measure of binding affinity in units of concentration. High values mean a looser complex, low ones a tighter complex. One may read the koff as the first-order rate constant of dissociation. The low end stands for slow dissociation, the high end for fast dissociation. In general, kon refers to a measure of how fast the partners come together. Low values mean slow association, high ones fast association. In the assay with human IgG (human), GPDCAYHRGELVWCTFH [peptide (amino acid sequence: SEQ ID NO: 18) prepared by chemical synthesis] showed a Kd of 14 nM, a koff of 0.0048 s⁻¹ and a kon of 330000 M⁻¹ s⁻¹. In assay [1], this molecule had a dynamic binding capacity (DBC) of 6.9 mg/mL-column.
